We go through one molecule from PMC10855199.

In the experiment the target is Aβ42 oligomers. Kind of experiment: SPR; Biacore T200; AL fibrils (1000 RU) or Aβ42 oligomers (500 RU) amine-coupled on CM5; two-fold serial dilutions of whole antibody injected at 30 μL/min; 25 °C; 10 mM phosphate, 137 mM NaCl, 2.7 mM KCl, 0.05% Tween-20, pH 7.5; global fit to a Langmuir 1:1 model.

B1: wild-type crenezumab (antibody, V domains shown)
VH: EVQLVESGGGLVQPGGSLRLSCAASGFTFSSYGMSWVRQAPGKGLELVASINSNGGSTYYPDSVKGRFTISRDNAKNSLYLQMNSLRAEDTAVYYCASGDYWGQGTTVTVSS
VL: DIVMTQSPLSLPVTPGEPASISCRSSQSLVYSNGDTYLHWYLQKPGQSPQLLIYKVSNRFSGVPDRFSGSGSGTDFTLKISRVEAEDVGVYYCSQSTHVPWTFGQGTKVEIK
One may read the Kd as the constant that tells how readily two partners part at equilibrium. Low values mean tighter binding, high ones weaker binding. As a reminder, the koff is the rate constant with which the complex falls apart. The low end stands for slow dissociation, the high end for fast dissociation. A word on the kon: it is the rate constant with which the complex forms. Consider B1, for which the Kd came to 1.53 nM, the koff was 0.00116 s⁻¹ and the kon came to 761000 M⁻¹ s⁻¹.
